The values below come from paper doi:10.1101/327866 (bioRxiv, 2018).

In experiment [1] the target is Ara h 2, purified natural peanut allergen (Arachis hypogaea (peanut), cultivar not …, UniProt Q6PSU2). The experiment in a line: BLI. A general note: Biolayer interferometry detects binding as a change in optical thickness at a sensor tip.
Experiment [2] deals with Ara h 3, purified natural peanut allergen (Arachis hypogaea (peanut), cultivar not …, UniProt O82580). The experiment in a line: BLI.

Positions count from the first letter of the chain named.

B1: PA13P1H08 variant: heavy chain reverted to the inferred naive rearrangement, native light chain (antibody, V domains shown)
VH: QVQLVESGGGVVQPGRSLRLSCAASGFTFSSYGMHWVRQAPGKGLEWVAVISYDGSNKYYADSVKGRFTISRDNSKNTLYLQMNSLRAEDTAVYYCAKVLDYSNYYYYYGMDVWGQGTTVTVSS
VL: EIVLTQSPGTLSLSPGGRGTLSCRTSQTINNAHLAWYQHKPGQAPRLLIYGSSERATGVPDRFSGSGSGSDFTLTISSLEAEDFAVYYCQHYGRSPPYTFGPGTKLDIK
Consider B1, for which the binding result in experiment [1] and in experiment [2] was “binds” in each case.

B2: PA13P1H08 variant: only the heavy chain CDR2 reverted to the inferred naive rearrangement, native light chain (antibody, V domains shown)
VH: QVQLVNSGGGVVQPGRSLRLSCVASGFTFSTFGIHWVRQAPGKGLEWVAVISYDGSNKESADSVKGRFTPSRDNSKNTVYLQMNNLRVEDTAVYYCAKVLDYSRYSYYYGMDVWGQGTTVIVSS
VL: B1 VL
Consider B2, for which the binding result in experiment [1] and in experiment [2] was “binds” throughout.

B3: PA13P1H08 variant: only the heavy chain framework regions reverted to the inferred naive rearrangement, native light chain (antibody, V domains shown)
VH: B1 VH with S31T, Y32F, Y53N, S56E, N57K, K58S, N104R, Y106S
VL: B1 VL
On to B3, for which the binding result in experiment [1] and in experiment [2] was “binds” each time.

B4: PA13P1H08 variant: only the heavy chain CDR1 reverted to the inferred naive rearrangement, native light chain (antibody, V domains shown)
VH: B2 VH with T31S, F32Y, Y53N, S56E, N57K, K58S
VL: B1 VL
In the case of B4, the binding result in experiment [1] and in experiment [2] was “binds” in each case.

B5: PA13P1H08 variant: only the heavy chain CDR3 reverted to the inferred naive rearrangement, native light chain (antibody, V domains shown)
VH: B2 VH with Y53N, S56E, N57K, K58S, R104N, S106Y
VL: B1 VL
On to B5, for which the binding result in experiment [1] and in experiment [2] was “binds” each time.
